Molecular target: SCMV-BJ VPg-YFP^N (BiFC fusion, pUC-SPYNE) (Sugarcane mosaic virus, Beijing isolate (SCMV-BJ))
Assay: split reporter (BiFC, NanoBiT); BiFC: YFP^N and YFP^C fusions co-transfected into maize protoplasts; YFP fluorescence captured at 12-18 h post transfection by confocal microscopy

Substance: YFP^C-ZmElc (BiFC fusion, pGD-YFP^C-ZmELC) (natural protein)
- percentage of protoplasts exhibiting fluorescence signal: 64%

From publication PMC4143955
